Assay results: patent publication US20250353921A1 (ASTRIA THERAPEUTICS, published 2025)

B1: MAB1 IgG1 (antibody)
heavy: not shown
light: EIVLTQSPATLSLSPGERATLSCRASSSVSYMHWYQQKPGQAPRPWIYATSNRATGIPARFSGSGSGTDYTLTISSLEPEDFAVYYCQQFGAWPWTFGQGTKVEIKRTVAAPSVFIFPPSDEQLKSGTASVVCLLNNFYPREAKVQWKVDNALQSGNSQESVTEQDSKDSTYSLSSTLTLSKADYEKHKVYACEVTHQGLSSPVTKSFNRGEC
notes: Human IgG1, kappa
B2: MAB10 (antibody, human IgG1, kappa)
heavy: QVTLKESGPALVKPTQTLTLTCSFSGFSLSTSGMGVGWIRQPPGKALEWIAHIWWDDDKYYNTALKTRLTISKDTSKNQVVLTMTNMDPVDTATYYCARIDWDGFAYWGQGTLVTVSSASTKGPSVFPLAPSSKSTSGGTAALGCLVKDYFPEPVTVSWNSGALTSGVHTFPAVLQSSGLYSLSSVVTVPSSSLGTQTYICNVNHKPSNTKVDKKVEPKSCDKTHTCPPCPAPELLGGPSVFLFPPKPKDTLYITREPEVTCVVVDVSHEDPEVKFNWYVDGVEVHNAKTKPREEQYNSTYRVVSVLTVLHQDWLNGKEYKCKVSNKALPAPIEKTISKAKGQPREPQVYTLPPSRDELTKNQVSLTCLVKGFYPSDIAVEWESNGQPENNYKTTPPVLDSDGSFFLYSKLTVDKSRWQQGNVFSCSVMHEALHNHYTQKSLSLSPGK
light: B1 light
notes: MAB1 with M252Y, S254T and T256E (EU numbering) in the IgG1 Fc; also called MAB1 Heavy Chain + YTE

Key:
[1] = target: T1, human OX40 (TNFRSF4, CD134) on cells (human, UniProt P43489 29-277); assay: flow cytometry on OX40-expressing HPB-ALL cells; cells pre-incubated with cold MAB1, washed, then stained with a single dose of the competitor GBR 830-AF647
T1 construct: also called OX40 on HPB-ALL cells; Jurkat-NFκB-OX40 cells
T1 sequence: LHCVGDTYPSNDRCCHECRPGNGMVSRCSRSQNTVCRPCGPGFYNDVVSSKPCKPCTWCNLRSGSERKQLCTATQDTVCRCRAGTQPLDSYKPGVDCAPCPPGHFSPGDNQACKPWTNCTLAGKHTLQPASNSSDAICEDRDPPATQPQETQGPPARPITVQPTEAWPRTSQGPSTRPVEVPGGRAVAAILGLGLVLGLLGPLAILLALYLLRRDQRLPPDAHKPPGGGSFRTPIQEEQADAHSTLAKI

[2] = target: T2, Human CD16a (F176V), Sino Biological 10389-H08H1 (human, UniProt P08637 17-208); assay: SPR Biacore 8K+, ratio of KD values
T2 construct: also called FcγRIIIa176V
T2 sequence (P08637 17-208 F176V limits assumed): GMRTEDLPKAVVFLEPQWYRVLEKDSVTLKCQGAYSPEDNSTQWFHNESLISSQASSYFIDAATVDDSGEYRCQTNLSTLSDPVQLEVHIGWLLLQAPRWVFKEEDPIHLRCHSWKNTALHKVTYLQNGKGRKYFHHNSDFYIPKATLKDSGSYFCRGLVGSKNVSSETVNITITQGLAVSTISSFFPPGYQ

[3] = target: Human CD64 (FcγRI), Sino Biological 10256-H08H (human, UniProt P12314 16-288); assay: SPR Biacore 8K+, ratio of KD values
Human CD64 (FcγRI), Sino Biological 10256-H08H, sequence (P12314 16-288 limits assumed): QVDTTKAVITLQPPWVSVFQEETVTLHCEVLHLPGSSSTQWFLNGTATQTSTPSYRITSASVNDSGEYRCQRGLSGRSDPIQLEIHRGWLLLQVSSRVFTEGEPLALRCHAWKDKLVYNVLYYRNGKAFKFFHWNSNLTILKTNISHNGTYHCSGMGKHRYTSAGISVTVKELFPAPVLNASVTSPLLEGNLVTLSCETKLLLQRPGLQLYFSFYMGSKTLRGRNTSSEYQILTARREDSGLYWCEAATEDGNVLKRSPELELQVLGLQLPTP

[4] = target: T3, Human CD32a (167 His), Sino Biological 10374-H08H1 (human, UniProt P12318 34-218); assay: SPR Biacore 8K+, ratio of KD values
T3 construct: also called FcγRIIa167H
T3 sequence (looked up): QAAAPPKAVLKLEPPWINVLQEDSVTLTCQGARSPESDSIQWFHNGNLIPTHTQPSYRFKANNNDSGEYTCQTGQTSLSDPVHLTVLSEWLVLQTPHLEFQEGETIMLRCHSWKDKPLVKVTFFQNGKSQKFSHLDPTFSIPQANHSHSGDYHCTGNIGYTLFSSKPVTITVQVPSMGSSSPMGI

rabbit (rb) OX40 protein = target: T4, rabbit (rb) OX40 protein (rabbit); assay: ELISA on coated OX40, ratio of EC50 values
T4 construct: also called Rabbit OX40

[5] = target: cynomolgus monkey (cy) OX40 protein (Example 5) (cynomolgus monkey); assay: ELISA on coated OX40, ratio of EC50 values
rat (ra) OX40 protein = target: T5, rat (ra) OX40 protein (rat, UniProt P15725 20-210, limits assumed); assay: SPR single cycle kinetics, MAB10 captured
T5 construct: also called Rat OX40
T5 sequence (looked up): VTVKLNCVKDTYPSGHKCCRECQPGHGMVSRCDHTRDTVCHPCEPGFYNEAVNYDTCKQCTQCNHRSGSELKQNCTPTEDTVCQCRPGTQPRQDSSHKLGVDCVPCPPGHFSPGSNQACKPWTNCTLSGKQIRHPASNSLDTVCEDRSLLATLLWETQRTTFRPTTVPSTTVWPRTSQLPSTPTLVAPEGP

mouse (mo) OX40 protein = target: T6, mouse (mo) OX40 protein (mouse, UniProt P47741 20-211); assay: SPR single cycle kinetics, MAB10 captured
T6 construct: also called Mouse OX40
T6 sequence (looked up): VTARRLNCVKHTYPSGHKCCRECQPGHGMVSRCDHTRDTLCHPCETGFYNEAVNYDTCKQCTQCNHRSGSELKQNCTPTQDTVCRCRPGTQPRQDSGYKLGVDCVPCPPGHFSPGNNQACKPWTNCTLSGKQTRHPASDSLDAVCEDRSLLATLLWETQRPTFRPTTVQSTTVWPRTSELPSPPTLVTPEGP

[6] = target: T7, Human FcRn protein (Acro Biosystems, catalog NO: FCN-H52W7) (human, UniProt P55899 24-297; P61769 21-119); assay: SPR Biacore 8K+, antibody immobilised, FcRn analyte, pH 6.0; pH 6.0; ratio of the KD of MAB1 to that of MAB10
T7 construct: also called huFcRn
T7 sequence (P55899 24-297 limits assumed, chain 1 of 2): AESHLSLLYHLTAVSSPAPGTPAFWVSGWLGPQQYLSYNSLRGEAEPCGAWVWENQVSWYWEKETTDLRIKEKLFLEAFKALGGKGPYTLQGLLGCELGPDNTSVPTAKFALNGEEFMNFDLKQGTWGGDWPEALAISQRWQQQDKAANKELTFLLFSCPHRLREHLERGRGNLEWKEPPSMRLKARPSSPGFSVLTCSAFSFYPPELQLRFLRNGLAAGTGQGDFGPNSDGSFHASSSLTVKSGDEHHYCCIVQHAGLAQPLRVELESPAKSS
T7 sequence (P61769 21-119 limits assumed, chain 2 of 2): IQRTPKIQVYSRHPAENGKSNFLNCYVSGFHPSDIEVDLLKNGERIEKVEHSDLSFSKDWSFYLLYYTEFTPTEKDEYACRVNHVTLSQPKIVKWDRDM

| Binder | IC50 (read off the curve) [1] | fold-change of KD relative to MAB1 [2] | fold-change of KD relative to MAB1 [3] | fold-change of KD relative to MAB1 [4] | fold EC50 against human OX40 (rabbit (rb) OX40 protein) | fold EC50 against human OX40 [5] | binding result (rat (ra) OX40 protein) | binding result (mouse (mo) OX40 protein) | fold increase of the binding constant against MAB1 [6] |
| --- | --- | --- | --- | --- | --- | --- | --- | --- | --- |
| B1 | ~0.02 µg/mL |  |  |  |  |  |  |  |  |
| B2 |  | 2.7 fold | 1.6 fold | 3.1 fold | 8 fold | 4 fold | no binding | no binding | 8.8 fold |
